Patent US20160311863A1 (Affibody, published 2016)
Substitutions are numbered along the chain they refer to. Starred links: 1 amine or outer side, 2 acyl side, 3 side chain; linkers in the order of their positions; H or OH if unused. Positions of bridges follow the written chain, without caps; N, C: chain ends. No end group written: not given here. mXylylene = c1cc(C[*:1])cc(C[*:2])c1; oXylylene = c1ccc(C[*:2])c(C[*:1])c1

Columns and labels:
human serum albumin [1] = molecular target: T1, human serum albumin (human, UniProt P02768 25-609); test: SPR (ProteOn XPR36), HSA immobilized, KD=kd/ka
T1 construct: Immobilized on the sensor chip (2500 RU in screening; 1100-1600 RU in kinetics); also called HSA
Protocol: Biosensor binding analyses were performed on a ProteOn XPR36 instrument (Bio-Rad) at 25° C. using PBST (150 mM NaCl, 8 mM Na₂HPO₄, 2 mM NaH₂PO₄, 0.005% Tween20, pH 7.4) as running buffer at a flow rate of 50 μl min⁻¹. An injection of 30 μl of 20 mM HCl at a flow rate of 100 μl min⁻¹ was used for chip regeneration. In a screening experiment, the binding of all polypeptide variants to human serum albumin (HSA) was investigated. The proteins were diluted to 50 nM in running buffer and injected over a chip surface with 2500 RU of immobilized HSA. The association was studied for 300 s and the dissociation was followed for 7200 s (2 h). For data analysis, all samples were double referenced; the signal from a blank surface was first subtracted from the signal from the respective protein, and secondly the signal from an injection of PBST (running buffer) over the HSA surface was subtracted. […]
(§1) The kinetic parameters of the binding of PEP18049_CL and the reference protein PEP07830 to HSA were obtained from fitting the obtained sensorgrams to a 1:1 Langmuir binding model using the ProteOn Manager software version 3.1.0.6 (Bio-Rad). The average association rate constant (kₐ (M⁻¹ s⁻¹) and dissociation rate constant (kd (s⁻¹)) with standard deviation were calculated. From the average kₐ and the kd the dissociation equilibrium constant (KD (M)) was calculated (KD=kd/kₐ).

human serum albumin [2] = molecular target: T1, human serum albumin; test: SPR (ProteOn XPR36), HSA immobilized, 1:1 Langmuir fit, triplicate
Protocol: (§2) Biosensor binding analyses were performed on a ProteOn XPR36 instrument (Bio-Rad) at 25° C. using PBST (150 mM NaCl, 8 mM Na₂HPO₄, 2 mM NaH₂PO₄, 0.005% Tween20, pH 7.4) as running buffer at a flow rate of 50 μl min⁻¹. An injection of 30 μl of 20 mM HCl at a flow rate of 100 μl min⁻¹ was used for chip regeneration. In a screening experiment, the binding of all polypeptide variants to human serum albumin (HSA) was investigated. The proteins were diluted to 50 nM in running buffer and injected over a chip surface with 2500 RU of immobilized HSA. The association was studied for 300 s and the dissociation was followed for 7200 s (2 h). For data analysis, all samples were double referenced; the signal from a blank surface was first subtracted from the signal from the respective protein, and secondly the signal from an injection of PBST (running buffer) over the HSA surface was subtracted.
The HSA binding kinetics of PEP18049_CL and the reference protein PEP07830 were further studied using a sensor chip with HSA immobilized on three different surfaces to between 1100 RU and 1600 RU. The proteins were diluted in running buffer (0.8, 1.6, 3.3, and 6.6 nM for PEP18049_CL and 1.0, 2.0, 4.0 and 8.0 nM for PEP07830) and injected over the three HSA surfaces and thus giving binding curves in triplicate. The association time was 300 s and the dissociation was followed for 36 000 s (10 h).
as §1

human serum albumin [3] = molecular target: T1, human serum albumin; test: SPR (ProteOn XPR36), polypeptide injected over immobilized HSA
Protocol: as §2

human serum albumin [4] = molecular target: T1, human serum albumin; test: SPR (ProteOn) screening, 50 nM over immobilized HSA
Protocol: as §2

B1: PEP18049_CL (designed binder)
chain: LAEAKEAANAELDSYGCSDFYKRLIDKAKTVEGVEALKDAILAAKP
modifications: not fully specified; N-terminal leucine capped with acetic anhydride (acetylated); chloroacetylated Lys45 joined to the thiol of Cys17 by a thioether bond (intramolecular crosslink Cys17-Lys45); synthesised on Rink Amide resin
notes: also called crosslinked PEP18049
Binder B1 has a Kd (human serum albumin [1]) of 0.024 nM, a koff (human serum albumin [2]) of 1.5e-05 s⁻¹ and a kon (human serum albumin [2]) of 620000 M⁻¹ s⁻¹.

B2: PEP18052_CL (designed binder)
chain: B1 chain with A28C
modifications: not fully specified; two thioether crosslinks between chloroacetylated lysines and cysteines: Lys5-Cys28 and Cys17-Lys45; synthesised on Rink Amide resin
notes: Control, double crosslinked variant; the expected mass was found in two HPLC peaks that behaved alike; also called crosslinked PEP18052
B2: no binding (tested: 50 nM) (human serum albumin [3]).

B3: PEP14788_CL_A (designed binder)
chain: LAEAKEAANAELDSYGCSDFYKRLIDKAKTVEGVEALKDAILAACP-NH2
modifications: linker 17-45 via oXylylene
notes: Chemically synthesised Cys-Cys crosslinked variant; also called PEP14788 crosslinked with linker A (o-xylylene dibromide)
B3: binds (human serum albumin [4]).

B4: PEP14788_CL_E (designed binder)
chain: LAEAKEAANAELDSYGCSDFYKRLIDKAKTVEGVEALKDAILAACP-NH2
modifications: linker 17-45 via 2,6‑bis(bromomethyl)pyridine
notes: Chemically synthesised Cys-Cys crosslinked variant; also called PEP14788 crosslinked with linker E (2,6-bis(bromomethyl)pyridine)
B4: binds (human serum albumin [4]).

B5: PEP18051_CL (designed binder)
chain: B1 chain with L1C, C17V, K45L
modifications: not fully specified; chloroacetylated Lys29 joined to the thiol of Cys1 by a thioether bond (intramolecular crosslink Cys1-Lys29); synthesised on Rink Amide resin
notes: Control crosslinked variant; also called crosslinked PEP18051
B5: binds (human serum albumin [4]).

B6: PEP14788_CL_B (designed binder)
chain: LAEAKEAANAELDSYGCSDFYKRLIDKAKTVEGVEALKDAILAACP-NH2
modifications: linker 17-45 via mXylylene
notes: Chemically synthesised Cys-Cys crosslinked variant; also called PEP14788 crosslinked with linker B (m-xylylene dibromide)
B6: binds (human serum albumin [4]).

B7: PEP18050_CL (designed binder)
chain: B1 chain with C17V, A28C, K45L
modifications: not fully specified; chloroacetylated Lys5 joined to the thiol of Cys28 by a thioether bond (intramolecular crosslink Lys5-Cys28); synthesised on Rink Amide resin
notes: Control crosslinked variant; also called crosslinked PEP18050
B7: no binding (tested: 50 nM) (human serum albumin [3]).

B8: PEP07830 (designed binder)
chain: LAEAKEAANAELDSYGVSDFYKRLIDKAKTVEGVEALKDAILAALP-NH2
notes: Linear (non-crosslinked) control, made by solid phase peptide synthesis
B8 showed a Kd (human serum albumin [1]) of 0.021 nM, a koff (human serum albumin [2]) of 4.1e-06 s⁻¹ and a kon (human serum albumin [2]) of 190000 M⁻¹ s⁻¹.

B9: PEP14789_CL_A (designed binder)
chain: GSSLAEAKEAANAELDSYGCSDFYKRLIDKAKTVEGVEALKDAILAACP
modifications: linker 20-48 via oXylylene
notes: Recombinantly produced in E. coli; same as PEP14788 but with an N-terminal GSS (expressed with an MGSS extension); The crosslink positions are printed as Cys17-Cys45, probably counted without the GSS; also called PEP14789 crosslinked with linker A (o-xylylene dibromide)
B9: binds (human serum albumin [4]).

B10: PEP14789_CL_B (designed binder)
chain: B9 chain
modifications: linker 20-48 via mXylylene
notes: Recombinantly produced in E. coli; same as PEP14788 but with an N-terminal GSS (expressed with an MGSS extension); The crosslink positions are printed as Cys17-Cys45, probably counted without the GSS; also called PEP14789 crosslinked with linker B (m-xylylene dibromide)
B10: binds (human serum albumin [4]).
